Source: paper PMC9531428, “The diurnal emission of floral scent in Oncidium hybrid orchid is controlled by CIRCADIAN CLOCK ASSOCIATED 1 (CCA1) through the direct regulation on terpene synthase” (BMC Plant Biology, 2022)

How the values were obtained:
[1] = target: T1, terpene synthase (TPS; OncSBTPS) (Oncidium hybrid cultivar, UniProt A0A3R5SMM9); test: GC-MS (SPME) of reaction products; type: biochemical; settings: 37 °C, 4 h; products linalool and ocimene
T1 construct: recombinant purified protein
T1 sequence (A0A3R5SMM9 1-551): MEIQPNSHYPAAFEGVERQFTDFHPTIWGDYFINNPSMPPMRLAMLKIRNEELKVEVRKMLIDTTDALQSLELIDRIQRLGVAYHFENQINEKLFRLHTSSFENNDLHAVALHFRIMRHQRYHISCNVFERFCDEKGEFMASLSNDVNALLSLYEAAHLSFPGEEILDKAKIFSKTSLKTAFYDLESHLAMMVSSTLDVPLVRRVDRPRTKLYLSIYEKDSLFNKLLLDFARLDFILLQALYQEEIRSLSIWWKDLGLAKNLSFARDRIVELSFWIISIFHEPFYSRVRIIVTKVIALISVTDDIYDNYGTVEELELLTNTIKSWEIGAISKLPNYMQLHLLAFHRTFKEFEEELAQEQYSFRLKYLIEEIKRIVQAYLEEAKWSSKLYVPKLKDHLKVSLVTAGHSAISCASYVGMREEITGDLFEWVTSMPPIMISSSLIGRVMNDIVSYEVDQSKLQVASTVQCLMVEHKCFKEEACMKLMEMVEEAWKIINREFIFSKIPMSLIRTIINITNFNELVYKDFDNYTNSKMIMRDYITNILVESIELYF

[2] = target: T2, OncSBCCA1 (Oncidium hybrid Sharry Baby, UniProt A0A7L5RYG3 1-622); test: competition; 50x unlabeled competitor abolished the CCA1-probe signal; 10 uL with 2 uL 5X buffer (5X: 50 mM Tris-HCl, 750 mM KCl, 2.5 mM EDTA, 62.5% glycerol), i.e. 1X 10 mM Tris-HCl, 150 mM KCl, 0.5 mM EDTA, 12.5% glycerol; BSA; 30 min; pH and temperature not stated; native PAGE in 0.5X TAE, 150 V; settings: protein: recombinant; tags: His-tag (pET28a)
[3] = target: T2, OncSBCCA1; test: EMSA; 0-15 ug CCA1 in 10 uL; BSA; 10 uL with 2 uL 5X buffer (5X: 50 mM Tris-HCl, 750 mM KCl, 2.5 mM EDTA, 62.5% glycerol), i.e. 1X 10 mM Tris-HCl, 150 mM KCl, 0.5 mM EDTA, 12.5% glycerol; BSA; 30 min; pH and temperature not stated; native PAGE in 0.5X TAE, 150 V; settings: protein: recombinant; tags: His-tag (pET28a); label: 6-FAM (ligated with T4 ligase)

T2 sequence (A0A7L5RYG3 entry or part of it): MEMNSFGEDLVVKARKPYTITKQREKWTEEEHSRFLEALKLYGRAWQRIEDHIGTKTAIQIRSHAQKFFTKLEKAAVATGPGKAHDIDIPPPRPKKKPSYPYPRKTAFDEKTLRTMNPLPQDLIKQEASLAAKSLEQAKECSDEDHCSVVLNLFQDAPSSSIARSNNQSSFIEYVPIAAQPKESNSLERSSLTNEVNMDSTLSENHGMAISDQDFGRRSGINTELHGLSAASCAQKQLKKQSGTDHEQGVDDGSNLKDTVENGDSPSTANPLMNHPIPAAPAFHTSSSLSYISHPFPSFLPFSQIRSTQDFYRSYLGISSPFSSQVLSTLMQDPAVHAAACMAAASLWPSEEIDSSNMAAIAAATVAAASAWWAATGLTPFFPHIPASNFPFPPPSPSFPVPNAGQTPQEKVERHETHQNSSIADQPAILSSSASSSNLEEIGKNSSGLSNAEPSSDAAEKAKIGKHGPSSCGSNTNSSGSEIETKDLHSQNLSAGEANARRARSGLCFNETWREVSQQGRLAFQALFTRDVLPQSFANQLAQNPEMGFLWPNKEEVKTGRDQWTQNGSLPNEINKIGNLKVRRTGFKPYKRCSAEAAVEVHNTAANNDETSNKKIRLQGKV

CC(C)=CCC/C(C)=C/COP(=O)(O)OP(=O)(O)O [GDP, geranyl diphosphate] was tested, and the “GC-MS (SPME) of reaction products” value [1] was “TPS recombinant protein was purified, then fed with the precursor GDP”.

B1: unlabeled CBS competitor (24-mer) (dsDNA)
DNA 1: TATTTTAGAGATTTTTACATACAT
DNA 2: ATGTATGTAAAAATCTCTAAAATA
B1: binds [2].

B2: CBS probe (TPS promoter, 24-mer) (dsDNA)
DNA 1: TATTTTAGAGATTTTTACATACAT
DNA 2: ATGTATGTAAAAATCTCTAAAATA
B2: binds [3].
